Bounds are passed on as bounds.

First the molecules themselves.
T1: TPX2 amino acids 1-178 (Xenopus laevis, UniProt Q6NUF4 1-178)
T1 sequence (looked up): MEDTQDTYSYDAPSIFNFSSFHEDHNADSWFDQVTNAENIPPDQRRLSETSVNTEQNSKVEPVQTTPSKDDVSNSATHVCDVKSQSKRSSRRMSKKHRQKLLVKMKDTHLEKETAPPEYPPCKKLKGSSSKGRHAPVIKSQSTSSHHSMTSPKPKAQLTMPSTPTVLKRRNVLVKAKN

T2: TPX2 amino acids 1-260 (Xenopus laevis, UniProt Q6NUF4 1-260)
T2 sequence (looked up): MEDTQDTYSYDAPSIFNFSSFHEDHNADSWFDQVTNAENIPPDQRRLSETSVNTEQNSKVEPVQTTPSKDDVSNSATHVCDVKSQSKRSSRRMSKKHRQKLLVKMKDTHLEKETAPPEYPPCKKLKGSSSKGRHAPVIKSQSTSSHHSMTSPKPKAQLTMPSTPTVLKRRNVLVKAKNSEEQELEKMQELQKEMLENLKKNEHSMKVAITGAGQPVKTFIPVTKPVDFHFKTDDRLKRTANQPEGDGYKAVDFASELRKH

B1: importin-α/β heterodimer (GST-importin-α bound to importin-β) (complex)
chain 1: not shown
chain 2: MELVTILEKTVSPDRNELEAAQKFLEQAAVENLPTFVVELSKVLANPANSQVARVAAGLQIKNPLTSRDPDVKAQYQQRWLAIDASARGEIKTYVLRTLGTESYRPSSASQCVAGIACAEITVNQWPQLIPQLVANVTDPNSTERMKESTLEAIGYICQDIDPEQLQHKSNEILTAIIQGMRKEEPSNNVRLAATNALLNSLEFTKANFDKESERHYIMQVVCEATQCPDTRVRVAALQNLVKIMSLYYQYMETYMGPALFAITVEAMKNEIDEVALQGIEFWSNVCDEEMDLAIEASEAAEQGRPPEHTSKFYAKGALQYLVPILTQTLTKQDENDDDDDWNPCKAAGVCLMLLATCCEDDIVPHVLPFIKEHIKNPDWRYRDAAVMAFGCILEGPESCQLKPLVIQAMPTLIELMKDPSVVVRDTTAWTVGRICELLPEAAINDVYLAPLLQCLIEGLGAEPRVASNVCWAFSSLAEAAYEAADVADDQEEPSSYCLSSSFEVIVQKLLETTDRPDGHQNNLRSAAYEALMEIVKNSAKDCYPAVQKTTLVIMERLQQVLQVESHIQSTSDRIQFNDLQSLLCATLQNVLRKVQHQDALQISDVVMASLLRMFQSTAGSGGVQEDALMAVSTLVEVLGAEFLKYMEAFKPFLTIGLKNYAEYQVCLAAVGLVGDLCRALQSNILPFCDEMMQFLLENLGNENVHRSVKPQILSVFGDVALAIGGEFKKYLDVVLNTLQQASQAQVDKSDYDMVDYLNELREGCIEAYTGIIQGLKGDQENVHPDVMLVQPRVEFILSFIDHIAGDEDHTDSVVACGAGLIGDLCTAFGKDVLKLVEARPMIHELLTEGRRSKTNKTKTLATWATKELRKLKNQA
B2: importin-β (natural protein, Xenopus laevis, UniProt P52297 1-876, looked up)
chain: B1 chain 2
B3: Targeting Protein for XKlp2 (TPX2), full length, GFP-tagged (natural protein, Xenopus laevis, UniProt Q6NUF4 1-716, looked up)
chain: MEDTQDTYSYDAPSIFNFSSFHEDHNADSWFDQVTNAENIPPDQRRLSETSVNTEQNSKVEPVQTTPSKDDVSNSATHVCDVKSQSKRSSRRMSKKHRQKLLVKMKDTHLEKETAPPEYPPCKKLKGSSSKGRHAPVIKSQSTSSHHSMTSPKPKAQLTMPSTPTVLKRRNVLVKAKNSEEQELEKMQELQKEMLENLKKNEHSMKVAITGAGQPVKTFIPVTKPVDFHFKTDDRLKRTANQPEGDGYKAVDFASELRKHPPSPVQVTKGGHTVPKPFNLSKGKRKHEEASDYVSTAEQVIAFYKRTPARYHLRSRQREMEGPSPVKMIKTKLTNPKTPLLQTKGRHRPVTCKSAAELEAEELEMINQYKFKAQELDTRILEGGPVLLKKPLVKEPTKAIGFDLEIEKRIQQREKKEEIEEETFTFHSRPCPSKMLTDVVGVPLKKLLPVTVPQSPAFALKNRVRIPAQEEKQEEMVPVIKATRMPHYGVPFKPKLVEQRQVDVCPFSFCDRDKERQLQKEKRLDELRKDEVPKFKAQPLPQFDNIRLPEKKVKMPTQQEPFDLEIEKRGASKLQRWQQQIQEELKQQKEMVVFKARPNTVVHQEPFVPKKENRSLTESLSGSIVQEGFELATAKRAKERQEFDKCLAETEAQKSLLEEEIRKRREEEEKEEISQLRQELVHKAKPIRKYRAVEVKASDVPLTVPRSPNFSDRFKC
B4: importin-αΔIBB (importin-α without the importin-β binding domain) (domain or fragment)
chain: not shown
B5: TPX2 N-terminus (a.a. 1-480) (domain or fragment, Xenopus laevis, UniProt Q6NUF4 1-480, looked up)
chain: MEDTQDTYSYDAPSIFNFSSFHEDHNADSWFDQVTNAENIPPDQRRLSETSVNTEQNSKVEPVQTTPSKDDVSNSATHVCDVKSQSKRSSRRMSKKHRQKLLVKMKDTHLEKETAPPEYPPCKKLKGSSSKGRHAPVIKSQSTSSHHSMTSPKPKAQLTMPSTPTVLKRRNVLVKAKNSEEQELEKMQELQKEMLENLKKNEHSMKVAITGAGQPVKTFIPVTKPVDFHFKTDDRLKRTANQPEGDGYKAVDFASELRKHPPSPVQVTKGGHTVPKPFNLSKGKRKHEEASDYVSTAEQVIAFYKRTPARYHLRSRQREMEGPSPVKMIKTKLTNPKTPLLQTKGRHRPVTCKSAAELEAEELEMINQYKFKAQELDTRILEGGPVLLKKPLVKEPTKAIGFDLEIEKRIQQREKKEEIEEETFTFHSRPCPSKMLTDVVGVPLKKLLPVTVPQSPAFALKNRVRIPAQEEKQEEMVPVI

The target in data set [1] is B3. Nature of the data set: SEC-MALS.
Data set [2] addresses GST-importin-α (full length) (Xenopus laevis). Nature of the data set: SEC-MALS.
The data set “importin-β” addresses B2. Nature of the data set: BLI.
Data set [3] concerns the target B1. Nature of the data set: BLI.
The data set “SEC-MALS” deals with the molecule itself. Nature of the data set: SEC-MALS.
The next data set concerns the target T1, TPX2 amino acids 1-178. Briefly: BLI.
The target in data set [4] is B3. Briefly: BLI.
The target in another data set is T2, TPX2 amino acids 1-260. Nature of the data set: BLI.

Turning to B1, in data set [1], the “stoichiometry N” value came to 1.

With B2, the “stoichiometry N” value in data set [2] was determined as 1.

Take B3: the Kd with importin-β came out at 530 ± 75 nM; in data set [3], 75 ± 15 nM.

Consider B4, for which the “stoichiometry N” value was at least 1 in data set [1] and 2 in “SEC-MALS”. In addition, the Kd was determined as 15 ± 3 nM with TPX2 amino acids 1-178, 61 ± 10 nM in data set [4] and 20 ± 4 nM with TPX2 amino acids 1-260.

As for B5, the affinity with importin-β, expressed as Kd, was 512 ± 70 nM.
